Experimental data taken from patent US20140341809A1.
pKd: −log10 of the molar value.

Experiments:
…/HLA-A2 [1] = assay: SPR, Biacore 3000, 25 C
…/HLA-A2 [2] = assay: SPR, against wild-type DMF5
…/HLA-A2 [3] = assay: SPR, Biacore 3000, 25 C (FIG. 2B shows a kinetic titration for this pair)

| Substance | pKd (…/HLA-A2 [1]) | ΔΔG (…/HLA-A2 [2]) [kcal/mol] | pKd (…/HLA-A2 [3]) |
| --- | --- | --- | --- |
| DMF5 TCR αD27W mutant | 6.17 | -1.6 | – |
| high-affinity DMF5 variant αD27Y/βL95W (TCR) | 5.77 | – | 7.62 |
